Assay results: patent US20230049732A1 (UNIVERSITY OF LOUISVILLE RESEARCH FOUNDATION, published 2023)

T1: VLPs of B19V genotype 2 (Lali strain VP2) (parvovirus B19 genotype 2, UniProt P07299 228-781)
T1 construct: Intact VLPs of non-mutated VP2
T1 chain: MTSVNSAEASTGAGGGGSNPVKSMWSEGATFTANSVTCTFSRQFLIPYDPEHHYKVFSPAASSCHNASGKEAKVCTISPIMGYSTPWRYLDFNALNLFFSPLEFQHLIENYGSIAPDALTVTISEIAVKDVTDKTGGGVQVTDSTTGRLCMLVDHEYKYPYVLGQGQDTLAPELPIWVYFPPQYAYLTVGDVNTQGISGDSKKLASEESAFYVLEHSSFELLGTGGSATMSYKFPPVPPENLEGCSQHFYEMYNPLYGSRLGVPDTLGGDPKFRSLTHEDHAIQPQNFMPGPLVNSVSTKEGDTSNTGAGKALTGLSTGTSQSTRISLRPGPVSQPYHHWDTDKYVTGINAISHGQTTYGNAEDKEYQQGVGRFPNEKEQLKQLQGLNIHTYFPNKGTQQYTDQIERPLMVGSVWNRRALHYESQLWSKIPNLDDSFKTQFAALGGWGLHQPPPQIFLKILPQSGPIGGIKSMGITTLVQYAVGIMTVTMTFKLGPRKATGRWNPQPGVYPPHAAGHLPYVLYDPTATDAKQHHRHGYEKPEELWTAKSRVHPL

B1: MAb #25 (antibody, V domains shown)
VH: QVQLQQPGAELVRPGASVKLSCKASGYTFTNYWMHWVKQRPEQGLEWIGRIDPYDSETHYNQKFKDKAILTVDTSSNTAYMQLSSLTSEDSAVYYCTSYYYGSNYVWHFDVWGAGTTVTVSS
VL: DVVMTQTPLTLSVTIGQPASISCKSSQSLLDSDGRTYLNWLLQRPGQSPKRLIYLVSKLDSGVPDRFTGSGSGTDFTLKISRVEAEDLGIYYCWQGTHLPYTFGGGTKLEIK
notes: Murine hybridoma antibody, supernatant; also called antibody 25
B2: MAb #91 (antibody, V domains shown)
VH: EVQLQQSGPELVKPGASVKISCKASGYSFTDYFMNWVKQSHGKSLEWIGRINPYNGDSFYNQNFRGSVTLTVDKSSGTAHMELLSLTSEDSTVYYCGAYRYDGYAMDYWGQGTSVTVSS
VL: DVVMTQTPLSLPVSLGDQASISCRSSQSLVHSDGNTYLHWYLQKPGQSPKLLIYKVSNRFSGVPDRFSGSGSGTDFTLKISRVEAEDLGVYFCSQSTHVPFTFGSGTKLEIK
notes: Murine hybridoma antibody, supernatant; also called antibody 91

Biological target: T1, VLPs of B19V genotype 2 (Lali strain …)
Experiment: ELISA, VLPs coated

Row | Binder | ELISA absorbance (405 nm)
1 | B1 | 2.54
2 | B2 | 3.09
